Experiment: folding stability dG unfold (combined trypsin and chymotrypsin); higher = more stable
Method: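 Folding stability of de novo designed mini-proteins (<80 aa, no Cys; designed by TrROS, TrMRF, ProteinMPNN and the joint model) was measured by cDNA display proteolysis with trypsin and chymotrypsin. Each protease was used at 11 concentrations in a threefold dilution series plus a no-protease condition. K50 was inferred by Bayesian fitting of sequencing counts, and dG unfold was derived against a sequence-predicted unfolded-state K50 (Tsuboyama et al. method). Sequences shown include variable-length N-terminal GS-type padding (SAGGSAGG...) inside a display construct carrying a PA tag. Rows were kept only if the AF2 dimer inter-PAE was >15, to exclude likely homo-oligomers.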

Folding stability dG unfold, < -1 kcal/mol:
GMILFKVKLTDPKGKKEIAEVDIPIPVPEEVLPAMPEELKEKLREEAEKAAEEIREKLGNVLVEPEFTLLES [r1_115_JUSTAS]
SAGGSAGGSAGSEELAKEIEDIAQEQGFPIKDVEIERNPPNGYYSIEVRHKGNPVTIPIPSAGGSAGGSAGG [r11_279_TrROS]
SAGGSMVVTTEPDGSVTVTTSASSPEEAKASVIAYLKEQGLKVKSLPVEVPPDGSVTVTLPVEPPLESAGGS [r8_253_JUSTAS]
SAGGSAGGSDKEREVPIEVRYPNQPLKIPVEFKDEEDAPHKARSAIKPLMKKLPMVKIPKPDDSAGGSAGGS [r12_230_TrROS]
SAGGSAGGSAGSVAEALADKTITVTSPSSSTPYTATITPGADDTLRVGSPGSSGTDISVARLSAGGSAGGSA [r18_169_JUSTAS]
SAGGDKIQEKLQKEGGFRPTNTEVNGGKPKIHIHWPNPERRKKLKEKLKKDPGIEEVQIQPMDPEDMSAGGS [r16_671_TrROS]
SAGGSAGGSLRPGEPFKIYSPNGEKFPFKIESVEVDPDGEIPLTITNPNGKPIGPFPYRIKPLSAGGSAGGS [r12_735_TrROS]
SAGGSAGGSAGGSPPIRIRFPNNGKTIPIDGPDDLKDYLRDNGLPIDPDDLDKIDEVEWSAGGSAGGSAGGS [r4_104_TrROS]
SAGGSAGGSAGVPPDAPEVVVTLTLRPPGPDTTVTLTVPAAELPPEAIPPGTVVERAVSPGASAGGSAGGSA [r18_21_JUSTAS]
SAGGDIEVEPTDNMPQVEIRDPEGKERKIVMPPNPNGQYNIQVHNPDDGKKKTFPVRSVDDALEWLKSAGGS [r8_230_TrROS]
SAGGSAGGSAGAAEFELSGTVRIGDVPVKVTPRLYVPEDGGYRAEPRVELYFREDTPGYRSAGGSAGGSAGG [r11_121_TrMRF]
SAGGSAGGSAGGSPELVPVSTEVVELETESVLELEESKVEVKERLEIVVKRLTKEGLGLESAGGSAGGSAGG [r7_485_JUSTAS]
SAGGSAGGSAGWRVRVSFPNGNKIEIDEIPPDDEGMTPDQLADEIQKEFPGNGIEVEPVPSAGGSAGGSAGG [r17_42_TrROS]
SAGSPADVVPLEIPFVTEDGSRVRATLLYDPATGEVTVPIETEDPALGRRAAAFARRLAEELGAPDVRPSAG [r5_99_TrMRF]
SAGGDWLDNFPPGWKIKLERPNGKPKTYTIPPNSSPDDLKKLKLPNGYKLKIDEVTPNGQMTFRLPPSAGGS [r16_103_TrROS]
SAGGSAGGSAGGSRIHIEPDNNNYRIKNRNPGGKKEEFPFDSLEDLKDLPPGFPVEIYDSAGGSAGGSAGGS [r4_447_TrROS]
SAGGSAGGSAGMVRIKITHNNGRKNTFKIPPNITEVKEVEIKLPPELQDNITKVEIEPLDSAGGSAGGSAGG [r17_528_TrROS]
SAGGSAGGSAGGDNIKIDIDFDPGYGVFTSKIYPPNGGPISDLSIKIPPMSPEDLDKFKSAGGSAGGSAGGS [r10_717_TrROS]
SAGFDFPEDFTPIARDGVNSLWQGDGPVLLALRGPEGGSAVLPFKPGNPEEIFPLIEALAAGGVVDPSFSAG [r14_12_TrMRF]
SAGGSAPFQIKEPDGKTETFPMNDIPPDLIKNFPDVKITMPGGQERKIPPGQKLSPGGMMTIQIPKSAGGSA [r15_733_TrROS]
SAGGSAGGSAGGMTETIPVSPSELDEVIEEAKKKGLKKIVLKDPNSSKKTVITKDKVEDESAGGSAGGSAGG [r7_564_JUSTAS]
SAGGSMTLYVRLPDRTVEADEVTVPPNGPALVRYRITDPEGEEPEIVVEPEELAELFGLTPEEIEGSAGGSA [r2_262_TrMRF]
SAGYELKILKAEVKDGEIDIPILHPDGRPSTARIKVELVEGEDGIPRPVLKIEIPEEELKNSIPPELLKSAG [r5_462_TrMRF]
SAGGSAGGSSAITHPDSDAGVAPVATTRSPNATPETVLRDDSPDPRRWILTASGERRVEPLLESAGGSAGGS [r12_205_JUSTAS]
SAGGSAGGSAPFTAKEAADYAAWKIQKRLKKEGNPDKEITIKAPIEWDPEDGIFRAKIQIEYSAGGSAGGSA [r18_517_TrROS]
SGKVVGEKTYPVSDGSEGPAKATRDPDSLTFTITNKKGEVIKTIKVPKNAGVEKVFDIKVSPDEFKGLNLSA [r9_215_JUSTAS]
SAGGGMEIVTTKESTLPEDVKVKESTTTFPDGTSIKTVTLTSPKPGDTKTITIPVKPGGPGLSTTVTESAGG [r13_323_JUSTAS]
SAGGSAGGSAGGSMSWDDRPPVISTSVVKLPIEPGTVVKEGSKTYVAKPDGTVTVIDPRSAGGSAGGSAGGS [r4_394_JUSTAS]
SAGGPKIDVEKEKSPERGRRKIEIRWPGSGQEMDIFLPDDDPDKIAKALQNAPFGSFHEAIREALRDSAGGS [r8_484_TrROS]
SAPYIRKVTYTTTFYPPDGTPVQSTKPTTEPVDPAEKDTTTTSTTALPDGGSVTTTSTTTVEPAEPALLSAG [r14_268_JUSTAS]
SAGGSAGGSAGTVVVITPKNGEKFVFEAESSELPKIKEAFPELKIKDIDPGKGFIHVEVDSAGGSAGGSAGG [r17_22_TrMRF]
SAGGFPISIERWDPDGKKRRREIPMDDPDEIKEFLDDLPPDRPVRIHMPNPQHFNALKNAGFDEVEMMSAGG [r13_476_TrROS]
SAGGSAGGSAGGMLPIPKIEVKPGDEEEAKKTKEKLKKELEEKLGKKAKNLKVDFNPSLSAGGSAGGSAGGS [r10_1216_JUSTAS]
SAGGSAGGSAGGMKPYRIGNGAWLYVNPDDSVRIYNPGNGQKRTIPIGKPQPIRLPKNAISAGGSAGGSAGG [r7_299_TrROS]
SAGGSAGGSNVEIDTTRTPDRYTVKIRFPDNGKKVEIPFDPGQPPNQAKDRAKELAKKNGIKISAGGSAGGS [r12_764_TrROS]
SAGGSAGGSAGGKSPLEKLRELAKKNPNVTVYVEKTGKEVKVPSIEELLEKGYKIVKIEKSAGGSAGGSAGG [r7_504_TrROS_Hall]
SAGGSAGGSAGGSLALVRFPGDDRLFSVPVPEDLEAELVLPTPDGRPVGVRLFRVRDPRESAGGSAGGSAGG [r7_19_TrMRF]
SAGGSAGGSAGSNKVSPVITLEEDPDGTVTRTVTLKINTPEGKTLTTTSTDPLSPDSALKRSAGGSAGGSAG [r3_180_JUSTAS]
SAGGIKELADEGAEIKDVTWPVRFPDGNPMRITEIKPTDGGLDIRFEPPNDGREQEHPIPPDNIEPLPSAGG [r13_340_TrROS]
SAGGPVSEEIVTEKKTLEEDPKNGNTYSEIIMKTPNETIKVKGVKHPSGSTTYTVYTPNSKIATVNVSSAGG [r13_146_JUSTAS]
SAGGSAGGSAGVDFFKAPDGSEYAVVVARGKDADIPVLTRVDDGNDALAERFGLPKEKIGSAGGSAGGSAGG [r11_1039_TrMRF]
SAGGSAGGSPIRRALRYVREQFPPGQPYRVRARNPGNGKEREIEVPWNDPEELDNTKDIEVEPYSAGGSAGG [r6_402_TrROS]
SAGGNLKIEMGDNPHEIPVDPNQVDTPEEAIEEVADQIRNRFPQFGPFRVRVETEGGKEIAMINIKPKSAGG [r13_257_TrROS]
SAGGSAGGSSHMEVEKAAKELSSEVGFEKSSNGPDSVSFTFDPAKPELVRALAEKFGIDLKVESAGGSAGGS [r12_74_JUSTAS]
SAGGSAGGSAGMKLEELAKEAEERYREEGGDAVIDLVVEREDDKKEPFILEIGKKGLKIESAGGSAGGSAGG [r11_954_TrMRF]
SAGSASPVVLKLTDPSSDKTYLVEVEVPEEEATWTLRDPSNGKEVEKVKMTLEELYAELKKKGLNPEPLSAG [r5_291_JUSTAS]
SAGGSAGGSAGGMTTTVIEVDVEPGEVSEEEIKKRLAPLTGKPIEITTDPSGIPVITVEESAGGSAGGSAGG [r7_330_JUSTAS]
SAGGIRIRPGQKIEDIEFEVEKNPDGEPPIKVKIRWPDKGKPHTYTMTPGQDVGNFADKNGWPIEVVSAGGS [r16_676_TrROS]
SAGGEDIIKELLDQLPPGDKNAVLEFDPPDGKLEPKEPSPGGYMFEPKNPENGEKWTFVIRDDKIEPVSAGG [r13_803_TrROS]
SAGGSAGGSAGGSGLKELREEAAKGKKFIVRTTVPLKEYEFDLKDLDKFEDHDIIVEPRSAGGSAGGSAGGS [r4_157_TrMRF]
SAGGSAGGITVTIDMNEGYYRIKVEYPGNGKKREIPISGPPDDLASELEDEFGYPVKDVEIEKWSAGGSAGG [r6_763_TrROS]
SAGGSAGGSMDLEDMKIKSIYIPDNPIMITFKNKGKHRTRTIPEDNWQILKDLLGDGDITIHPSAGGSAGGS [r12_604_TrROS]
SAGGSAGGSEIEIMAPFKSPEDARDQIREFAREKGLEIKPKKIEVHRNPNGWQWVTFKIEIKDSAGGSAGGS [r12_924_TrROS]
SAGGFNLKIMPMRMPRRKYDPEDGEPKKPEPVKMWMIQVEAKPGQTVSEIADELQKEFPGDNIMVMPSAGGS [r8_30_TrROS]
SAGIKIEWDPDEGYIKIEMPYDSPAEANENIQEIHEKFGLKDVTAERDPNNGTVEHTIRIKNPEALKELSAG [r5_598_TrROS]
SAGGSAGGSAPKPIERVEVGSFTLPPGRRVFPVRARIRGTGEVVVVATDGAPVEEVLKAVEASAGGSAGGSA [r18_345_TrMRF]
SAGGSAGGRIRVPDGREIPPGQSKEEAKDQVKDWFKERNPQNGNKKVKIEAEKWDGMPWIRVKPSAGGSAGG [r6_558_TrROS]
SAGGSAGGSASPKQVPITIEIQTPNKPRKITFPIPEGQEGGPEEIMDRLADDGNYKIDRITSAGGSAGGSAG [r3_31_TrROS]

From the supplement of paper PMC12764529
